Experimental data taken from PMC3436577 (The Journal of Biological Chemistry, 2012).

B1: eIF5 (natural protein)
chain: MSINICRDNHDPFYRYKMPPIQAKVEGRGNGIKTAVLNVADISHALNRPAPYIVKYFGFELGAQTSISVDKDRYLVNGVHEPAKLQDVLDGFINKFVLCGSCKNPETEIIITKDNDLVRDCKACGKRTPMDLRHKLSSFILKNPPDSVSGSKKKKKAATASANVRGGGLSISDIAQGKSQNAPSDGTGSSTPQHHDEDEDELSRQIKAAASTLEDIEVKDDEWAVDMSEEAIRARAKELEVNSELTQLDEYGEWILEQAGEDKENLPSDVELYKKAAELDVLNDPKIGCVLAQCLFDEDIVNEIAEHNAFFTKILVTPEYEKNFMGGIERFLGLEHKDLIPLLPKILVQLYNNDIISEEEIMRFGTKSSKKFVPKEVSKKVRRAAKPFITWLETAESDDDEEDDE
B2: c/Nip1-NTD (1–270) Box12-SPW (domain or fragment)
chain: MSRFFSSNYEYDVASSSSEEDLLSSSEEDLLSSSSSESELDQESDDSFFNESESESEADVDSDDSDAKPYGPDWFKKSEFRKQGGGSNKFLKSSNYDSSDEESDEEDGKKVVSSAPEWLLDEMQDVYNKISQAENSDDWLTISNEFDLISRLLVRAQQQNWGTPNIFIKVVAQVEDAVNNTQQADLKNKAVARAYNTTKQRVKKVSRENEDSMAKFRNDPESFDKEPTADLDISANGFTISSSQGNDQAVQEDFFTRLQTIIDSRGKKTV
modifications: 35S-labeled

Experiments:
Experiment in all cases: pull-down
c/Nip1-His Box12-WWPW = c/Nip1-His Box12-WWPW (S. cerevisiae, UniProt P32497 1-812, V111W | V112W | K116P | K118W)
c/Nip1-His Box15-2 = c/Nip1-His Box15-2 (S. cerevisiae, UniProt P32497 1-812, I142V | E145W | F146T | D147L | I149R)
[1] = target: c/Nip1-His GAP85 (Δ60–144) (S. cerevisiae, UniProt P32497 1-812, Δ60–144)
GST-eIF1 = GST-eIF1 (S. cerevisiae, UniProt P32911 1-108)
Chain of GST-eIF1 (P32911 whole entry): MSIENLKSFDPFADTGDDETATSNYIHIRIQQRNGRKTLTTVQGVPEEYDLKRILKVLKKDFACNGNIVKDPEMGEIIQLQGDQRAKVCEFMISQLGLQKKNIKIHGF

Binder	reduction of eIF5 associated in vivo, relative to WT c/Nip1-His (c/Nip1-His Box12-WWPW) [%]	reduction of eIF5 associated in vivo, relative to WT c/Nip1-His (c/Nip1-His Box15-2) [%]	reduction of eIF5 associated in vivo, relative to WT c/Nip1-His [1] [%]	fold increase in binding relative to the WT c/Nip1-NTD (GST-eIF1) [fold]
B1	~30	> 60	> 60	–
B2	–	–	–	~2
